According to the supplement of paper PMC10567573:

B1: NEK8 (parent)
chain: YTFGSNQHGQLGTNTRRGSRAPCK
B2: PLK2 (parent)
chain: MELLRTITYQPAASTKMCEQALGK

Variants of: B1
Test: protein stability index of a GFP-peptide fusion (GPS, HEK-293T) (PSI 1-6); higher = more stable
Conditions: c terminus: a fixed tail appended
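Also: lentivirally expressed fusions sorted by FACS into six bins by GFP to DsRed ratio, PSI derived from sequencing read proportions per bin multiplied by bin number.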

Protein stability index, by site and new letter:
T15: W 3.49; A 3.9; S 4.28; D 3.85; M 4.09; L 3.7; P 3.6; E 4.17; R 3.98; H 4.05; N 3.82; V 4.17; Y 3.67; I 4.14; F 3.56; C 3.56; K 3.94; G 3.77; Q 4.25
A21: N 4.1; W 2.69; K 4.24; P 3.69; E 4.32; Q 3.89; Y 3.38; R 3.53; F 3.54; V 3.84; T 4.3; H 3.79; M 3.5; D 4.11; G 3.7; S 3.84; C 2.94; I 3.69; L 3.54
N14: M 3.44; H 4.07; Y 3.63; W 3.21; T 2.98; K 3.88; R 3.88; C 2.29; F 3.71; E 3.69; L 3.51; V 2.06; Q 3.69; P 3.77; D 4.35; S 3.88; I 2.73; A 3.38; G 3.49
R16: H 4.25; M 3.63; K 3.67; A 3.81; W 1.8; L 3.82; T 4.21; Y 3.37; D 4.05; F 2.57; C 3.36; N 4.02; P 3.94; G 4.24; I 3.56; E 3.63; S 3.85; V 3.99; Q 3.97
R20: M 3.15; P 3.83; F 2.85; G 3.97; L 3.53; T 3.86; C 3.33; I 3.52; D 3.81; E 4.1; Q 4.17; K 4.38; V 3.48; H 3.96; S 3.55; Y 3.07; W 2.21; N 4.05; A 4.07
T13: R 4.11; M 3.72; H 4.35; L 3.58; C 3.13; Y 3.62; S 4.3; K 3.79; I 3.15; Q 4.35; N 4.06; A 4.44; E 4.37; P 4.45; D 4.44; W 3.22; F 3.31; V 3.67; G 4.43
G18: Y 3.26; D 3.94; V 3.46; K 4.05; N 3.81; F 2.85; W 3.23; C 3.48; M 3.47; I 3.61; Q 3.27; S 3.43; P 3.53; R 3.95; E 3.69; A 3.33; L 3.77; H 3.52; T 4.08
C23: G 3.4; K 4.21; N 4.19; L 3.91; D 4.19; F 3.61; T 3.9; P 3.89; I 3.59; M 3.61; W 3.37; A 3.95; H 4.25; R 4; S 3.72; E 4.27; Q 4.18; Y 3.46; V 4.25
P22: Y 3.72; S 3.96; K 3.82; W 3.51; I 3.94; R 3.82; C 3.84; L 3.4; A 3.82; E 3.88; Q 3.73; H 3.53; G 4.3; D 4.13; T 3.95; F 3.66; M 3.44; V 3.99; N 4.22
R17: F 3.18; K 3.73; S 3.81; E 4.07; P 3.75; A 3.46; I 3.51; Y 3.5; G 4.09; C 3.07; L 3.92; H 3.94; M 3.88; Q 4.02; N 3.97; V 3.66; T 3.65; D 3.84
K24: C 2.72; N 3.2; L 3.81; G 4.29; P 4.09; H 3.52; Y 2.63; A 3.45; S 3.24; T 3.43; Q 3.79; V 3.68; R 3.44; D 3.91; M 2.94; F 2.93; I 3.08; W 2.59; E 3.77
S19: N 3.86; L 3.82; D 4.18; Y 3.52; Q 4.02; P 3.89; H 3.95; G 3.91; F 3.03; A 3.95; W 2.8; C 3.08; K 3.77; I 3.33; T 3.81; E 3.72; V 3.77; R 3.91; M 4.05
L11: V 4.1; Y 3.95; W 3.22
G12: L 4.15; F 3.09; W 2.73; T 4.32; I 3.79; N 4.18; Q 3.93; Y 3.83; S 3.97; A 4.36; H 4.37; E 4.19; P 4.43; D 4.68; K 3.98; R 4.11; M 3.84; V 4.11; C 3.71

Variants of: B2
Test: as above
Conditions: c terminus: a fixed tail appended

Protein stability index of substitutions, site by site:
E2: C 1.93; G 2.69; P 2.73; F 1.69; W 2.57; A 1.79; V 2.13; Q 1.91; N 2.61; H 2.05; Y 2.03; T 2.28; R 2.15; K 2.7; M 2.09; L 2.15; S 2.38; D 2.75; I 1.51
R5: D 3.95; F 2.18; H 3.02; A 1.92; G 3.02; I 3.09; C 1.47; E 3.55; K 3.52
M1: E 4.07; D 3.64; F 2.04; L 2.37; S 2.17; N 4.1; K 3.84; P 4.09; C 1.51; T 3.74; Y 2.54; A 2.18; V 2.23; Q 3.84; H 3.67; R 3.04; W 2.16; G 3.84; I 2.03
L3: W 2.48; Y 2.07; H 1.62; N 1.88; T 1.94; D 2.46; K 1.37; R 2.24; G 1.89; C 2.17; Q 2.08; A 2.82; S 2.21; F 2.56; V 2.49; E 2.56; I 2.63; P 3.11; M 3.04
L4: S 3.91; Q 2.58; R 3.26; F 2.05; M 1.61; C 2.02; I 2.92; E 3.69; Y 1.98; G 3.76; W 1.7; V 2.77; N 4.01; H 2.6; P 4.25; D 4.39; K 4.05; A 2.55; T 3.67
